{
  "source": "paper PMC6891902",
  "about": "“GLTSCR1 Negatively Regulates BRD4‐Dependent Transcription Elongation and Inhibits CRC Metastasis” (Advanced Science, 2019)",
  "binders": {"B1": {"name": "GST-GLTSCR1 (aa 1161-1361), BRD4 binding domain (BB domain) (domain or fragment, human, UniProt Q9NZM4 1161-1361, looked up)", "chain": "EESRRVSPSAEMVMIDRMFIQEEKTTLALDKQLAKEKPDEYVSSSRSLGLPIAASSEGHRLPGHGPLSSSAPGASTQPPPHLPTKLVIRHGGAGGSPSVTWARASSSLSSSSSSSSAASSLDADEDGPMPSRNRPPIKTYEARSRIGLKLKIKQEAGLSKVVHNTALDPVHQPPPPPATLKVAEPPPRPPPPPPPTGQMNG", "notes": "also called GST-tagged GLTSCR1 BB domain; source: E. coli BL21, purified (glutathione agarose beads)"}},
  "target": "T1, His-tagged BRD4 (1-470, BDs domain) (UniProt O60885 1-470)",
  "T1 construct": "BRD4, BDs domain (BD1 + BD2), aa 1-470; also called His-BRD4 (BD1 + BD2); pET-28a-His-BRD4 (1-470)",
  "test": "pull-down; GST pull-down; purified GST-GLTSCR1 (1161-1361) incubated with purified His-tagged BRD4 fragment at 4 °C overnight; beads washed three times in lysis buffer (0.5% Triton-X100, 50 mM NaH2PO4, 300 mM NaCl); immunoblot",
  "settings": "both partners purified",
  "data": [
    {"binder": "B1", "values": [
      {"measurement": "binding result", "result": "binds"}
    ]}
  ]
}
